Source: paper PMC3561989

T1: Lin28 ZnF (UniProt Q9H9Z2 137-176)
T1 chain: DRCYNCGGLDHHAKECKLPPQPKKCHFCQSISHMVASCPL


Legend:
hnRNP A1 (cited work) [1] = target: hnRNP A1 (cited work) (UniProt P09651); test: fluorescence assay; settings: cited from earlier work
hnRNP A1 (cited work) [2] = target: hnRNP A1 (cited work) (UniProt P09651); test: filter binding; settings: cited from earlier work
Lin28 ZnF = target: T1, Lin28 ZnF; test: plate binding, coated protein

Chain of hnRNP A1 (cited work) (P09651 whole entry): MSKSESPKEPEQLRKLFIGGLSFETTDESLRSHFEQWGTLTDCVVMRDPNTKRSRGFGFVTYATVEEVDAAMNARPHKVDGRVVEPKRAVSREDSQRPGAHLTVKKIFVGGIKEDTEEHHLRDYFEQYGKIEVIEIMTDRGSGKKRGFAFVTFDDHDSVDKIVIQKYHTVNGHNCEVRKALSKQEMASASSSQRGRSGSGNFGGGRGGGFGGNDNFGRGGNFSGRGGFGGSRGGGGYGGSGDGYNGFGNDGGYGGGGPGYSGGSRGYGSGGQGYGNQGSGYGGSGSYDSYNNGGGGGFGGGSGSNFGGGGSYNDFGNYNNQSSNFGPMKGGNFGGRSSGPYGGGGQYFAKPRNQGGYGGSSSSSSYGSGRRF

| Molecule | Kd (hnRNP A1 (cited work) [1]) [nM] | Kd (hnRNP A1 (cited work) [2]) [nM] | binding result (Lin28 ZnF) |
| --- | --- | --- | --- |
| UAUGAUAGGGACUUAGGGUG [hnRNP A1 SELEX winner] | 2.5 | 1 |  |
| pre-miR-9-1 (structured_RNA) RNA: UCUUUGGUUAUCUAGCUGUAUGAGUGGUGUGGAGUCUUCAUAAAGCUAGAUAACCGAAAGU |  |  | binds |
